In this test the target is kalium channelrhodopsin 1 from Hyphochytrium catenoides, slow-cycling mutant C110A (HcKCR1_C110A) (Hyphochytrium catenoides). Briefly: cryo-EM structure.

In turn, “kalium channelrhodopsin 1 from Hyphochytrium catenoides, slow-cycling mutant C110A (HcKCR1_C110A) (domain or fragment)” registered a stoichiometry N of 3.

The record behind these values is PMC11790859.
